Test [1] relates to facial skin. Nature of the test: SIAscope dermal collagen, clinical study of Example 3. Type of test: in vivo, human. The conditions noted are these: 0.1% w/w topical formulation, Week 2. Here is the method: A clinical study using human subjects to determine the effects of a topical skincare product containing truncated human type 21 collagen (SEQ ID NO: 16) is performed. The research is performed according to U.S. and International standards of Good Clinical Practice (FDA and ICH guidelines) and applicable government regulations.
A base formulation (control formulation) made of water, olive oil glycereth-8 esters, glycerin, coconut alkanes, hydroxyethyl acrylate/sodium acryloyldimethyl taurate copolymer, pentylene glycol, disodium EDTA, caprylyl glycol, chlorphenesin, phenoxyethanol is prepared. A formulation containing the truncated human type 21 collagen is prepared by adding sufficient collagen to prepare a topical formulation containing 0.1% w/w collagen.
The COSMETRICS™ SIAScope (Astron Clinica, Toft, UK) is a non-invasive optical skin imaging instrument using Spectrophotometric Intracutaneous Analysis (SIA), or chromophore mapping. The technique is based on a unique combination of dermatoscopy and contact remittance spectrophotometry. The hardware consists of a hand-held imaging probe attached to a laptop computer. The unit is placed in contact with the skin surface and high-intensity LED's illuminate the skin as discreet wavelengths of 400 to 1000 nm, spanning the visible spectrum and a small range of the near infrared spectrum. A digital image is captured for each wavelength. Three parametric chromophore maps are retrieved up to 2 mm in depth and 11 mm in circumference, one for each of the following parameters: epidermal melanin, dermal hemoglobin and dermal collagen.
For the purposes of this study, dermal collagen will be measured on the left or right cheek, per a prepared randomization code, at baseline and at weeks 2, 4, and 8. Assessment location will be recorded on a face map for each subject for consistency of measurements between visits.
Improvements in skin hydration, firmness, and elasticity were statistically significant.

The subject of test [2] is Human full-thickness skin equivalents (MatTek Epiderm FT co-culture tissue models). Nature of the test: Type I collagen production in human full-thickness skin equivalents (pro-collagen type I C-peptide ELISA). Type of test: cell-based. The following applies: polypeptide 0.1% w/w, FIG. 18. Here is the method:
Human full-thickness skin equivalents (MatTek Epiderm FT co-culture tissue models) which contain keratinocytes and fibroblasts were treated with a 0.1% w/w truncated human type 21 collagen polypeptide (having an amino acid sequence of SEQ ID NO: 16) (“C21”; FIG. […] Culture medium was changed every 2 days. On day 4, supernatant was collected and analyzed by enzyme-linked immunosorbent assay (ELISA) for pro-collagen type I C-peptide, which is a readout for total secreted collagen type I protein.
On the technique in general: An ELISA detects its analyte on a solid surface through an enzyme-linked reagent.

B1: SEQ ID NO: 16: truncated human collagen type 21 alpha 1 without the DsbA secretion tag, recombinantly expressed in E. coli (protein)
chain: AGFPGLPGPAGEPGRHGKDGLMGSPGFKGEAGSPGAPGQDGTRGEPGIPGFPGNRGLMGQKGEIGPPGQQGKKGAPGMPGLMGSNGSPGQPGTPGSKGSKGEPGIQGMPGASGLKGEPGATGSPGEPGYMGLPGIQGKKGDKGNQGEKGIQGQKGENGRQGIPGQQGIQGHHGAKGERGEKGEPGVR
B1: in test [1], the “SIAscope Collagen Mean Percent Improvement From BL mean” value amounted to 6.72% and the “SIAscope Collagen Percent of Subjects Showing Improvement From BL” value amounted to 78.6%. Moreover, the “SIAscope Collagen Mean ± SD” value in test [1] (n 14, baseline 238.95 ± 11.60, P-value 0.004*) is 254.89 ± 19.35. Moreover, the “increase of type I collagen production relative to the untreated control” value in test [2] (day 4 supernatant, hyaluronic acid 0.1% w/w (low molecular weight, 15-40 kDa)) is recorded as 64%. In addition, the “production of type I collagen as compared to untreated cells” value in test [2] (each agent alone, day 4, retinol (10, unit not given), ascorbic acid 2% w/w, hyaluronic acid 0.1% w/w) was “increased production”.

(Values after US20230364000A1, “COMPOSITIONS COMPRISING COMBINATIONS OF COLLAGEN OR ELASTIN POLYPEPTIDES WITH ACTIVE INGREDIENTS AND METHODS OF USING SAME” (Geltor, Inc., priority 2020, published 2023).)
